Laboratory results published in article PMC7642358 (Nature Communications, 2020).

Assays:
[1] = biological target: T1, SARS-CoV-2 spike receptor-binding domain (2019-nCoV RBD-SD1, residues 319–566) (SARS-CoV-2, UniProt P0DTC2)
[2] = biological target: T1, SARS-CoV-2 spike receptor-binding …; assay: BLI; conditions: both partners purified
[3] = biological target: T1, SARS-CoV-2 spike receptor-binding …; assay: thermal shift (nanoDSF); conditions: both partners purified

B1: 71 (VHH)
VHH: QVQLVESGGGSVQAGGSLRLSCAASGNIQHIKYLGWFRQAPGREREGVAALMTRYGQTYYADSVKGRFTVSLDNAKNTVYLQMNSLKPEDTALYYCAAAHYGDNFPLAYQAYLYWGQGTQVTVS
Question: Does B1 bind [1]?
Answer: Result: binds

B2: 73 (VHH)
VHH: QVQLVESGGGSVQAGGSLRLSCAASGKIYQIGYLGWFRQAPGKEREGVAALMTTDGYTYYADSVKGRFTVSLDNAKNTVYLQMNSLKPEDTALYYCAAARHGRERPLHYWYYSYWGQGTQVTVS
Question: Does B2 bind [1]?
Answer: Result: binds

B3: 75 (VHH)
VHH: QVQLVESGGGSVQAGGSLRLSCAASGYINQIYYLGWFRQAPGKEREGVAALNTYQGQTYYADSVKGRFTVSLDNAKNTVYLQMNSLKPEDTALYYCAAARWGRDEPLYHYYYSYWGQGTQVTVS
Question: Does B3 bind [1]?
Answer: Result: binds

B4: 77 (VHH)
VHH: QVQLVESGGGSVQAGGSLRLSCAASGSISSITYLGWFRQAPAKSVRAVAALDTEQGETYYADSVKGRFTVSLDNAKNTVYLQMNSLKPEDTALYYCAAANQHGGYYPLDSAWYTYWGQGTQVTVS
Question: Does B4 bind [1]?
Answer: Result: binds

B5: 78 (VHH)
VHH: QVQLVESGGGSVQAGGSLRLSCAASGYIKSIKYLGWFRQAPGKEREGVAALMTRYGETYYADSVKGRFTVSLDNAKNTVYLQMNSLKPEDTALYYCAAANYGNNWPLTGVNYWYWGQGTQVTVS
Question: Does B5 bind [1]?
Answer: Result: binds

B6: 79 (VHH)
VHH: QVQLVESGGGSVQAGGSLRLSCAASGYIHTIEYLGWFRQAPGKEREGVAALYTLKGQTYYADSVKGRFTVSLDNAKNTVYLQMNSLKPEDTALYYCAAARWGRDTPLHYQYYSYWGQGTQVTVS
Question: Does B6 bind [1]?
Answer: Result: binds

B7: 81 (VHH)
VHH: QVQLVESGGGSVQAGGSLRLSCAASGYIHRIEYLGWFRQAPGKEREGVAALSTISGNTYYADSVKGRFTVSLDNAKNTVYLQMNSLKPEDTALYYCAAARFGRAYPLHYYQYTYWGQGTQVTVS
Question: Does B7 bind [1]?
Answer: Result: binds

B8: 82 (VHH)
VHH: QVQLVESGGGSVQAGGSLRLSCAASGTINSIHYLGWFRQAPGKEREGVAALDTYIGYTYYADSVKGRFTVSLDNAKNTVYLQMNSLKPEDTALYYCAAARWGRTSPLHWYYYTYWGQGTQVTVS
Question: Does B8 bind [1]?
Answer: Result: binds

B9: 83 (VHH)
VHH: QVQLVESGGGSVQAGGSLRLSCAASGGITHIVYLGWFRQAPGKEREGVAALMTRWGTTYYADSVKGRFTVSLDNAKNTVYLQMNSLKPEDTALYYCAAAKYGQNFPLSYHAYRYWGQGTQVTVS
Question: Does B9 bind [1]?
Answer: Result: binds

B10: 84 (VHH)
VHH: QVQLVESGGGSVQAGGSLRLSCAASGYIKHIEYLGWFRQAPGKEREGVAALKTSSGSTYYADSVKGRFTVSLDNAKNTVYLQMNSLKPEDTALYYCAAARYGRSDPLHYHEYSYWGQGTQVTVS
Question: Does B10 bind [1]?
Answer: Result: binds

B11: 85 (VHH)
VHH: QVQLVESGGGSVQAGGSLRLSCAASGSISSITYLGWFRQAPGKEREGVAALVTSRGKTYYADSVKGRFTVSLDNAKNTVYLQMNSLKPEDTALYYCAAASWGYTWPLYTYDYWYWGQGTQVTVS
Question: Does B11 bind [1]?
Answer: Result: binds

B12: 86 (VHH)
VHH: QVQLVESGGGSVQAGGSLRLSCAASGTIASIIYLGWFRQAPGKEREGVAALNTWNGKTYYADSVKGRFTVSLDNAKNTVYLQMNSLKPEDTALYYCAAAYSGMWYPLSNEHYGYWGQGTQVTVS
Question: Does B12 bind [1]?
Answer: Result: binds

B13: 88 (VHH)
VHH: QVQLVESGGGLVQAGGSLRLSCAASGFPVWAHHMLWYRQAPGKEREWVAAIASWGANTAYADSVKGRFTISRDNAKNTVYLQMNSLKPEDTAVYYCNVKDSGQYRENYDYWGQGTQVTVS
Question: Does B13 bind [1]?
Answer: Result: binds

B14: 90 (VHH)
VHH: QVQLVESGGGSVQAGGSLRLSCAASGAINQIYYLGWFRQAPGKEREGVAALSTKYGETYYADSVKGRFTVSLDNAKNTVYLQMNSLKPEDTALYYCAAARWGRQYPLTFVYYSYWGQGTQVTVS
Question: Does B14 bind [1]?
Answer: Result: binds

B15: 93 (VHH)
VHH: QVQLVESGGGSVQAGGSLRLSCAASGHIAQIEYLGWFRQAPGKEREGVAALSTNQGYTYYADSVKGRFTVSLDNAKNTVYLQMNSLKPEDTALYYCAAARWGRTYPLSYMAYTYWGQGTQVTVS
Question: Does B15 bind [1]?
Answer: Result: binds

B16: 94 (VHH)
VHH: QVQLVESGGGSVQAGGSLRLSCAASGYITMIEYLGWFRQAPGKEREGVAALNTHTGGTYYADSVKGRFTVSLDNAKNTVYLQMNSLKPEDTALYYCAAARWGRYEPLHYAYYSYWGQGTQVTVS
Question: Does B16 bind [1]?
Answer: Result: binds

B17: 97 (VHH)
VHH: QVQLVESGGGSVQAGGSLRLSCAASGAISTIEYLGWFRQAPGREREGVAALYTERGYTYYADSVKGRFTVSLDNAKNTVYLQMNSLKPEDTALYYCAAARYGHAQAPLHYFWYGYWGQGTQVTVS
Question: Does B17 bind [1]?
Answer: Result: binds

B18: sybody 100 (Sb100) (VHH)
VHH: QVQLVESGGGSVQAGGSLRLSCAASGSISSITYLGWFRQAPGKEREGVAALVTSDGRTYYADSVKGRFTVSLDNAKNTVYLQMNSLKPEDTALYYCAAANWGYSWPLYQTEYWYWGQGTQVTVS
notes: source: E. coli MC1061 F-, periplasmic extract, purified (Ni-NTA, desalted in PBS)
Question: How did the Kd [2] turn out when B18 was run?
Answer: The Kd was 38.7 nM.

B19: sybody 23 (Sb23) (VHH)
VHH: QVQLVESGGGLVQAGGSLRLSCAASGFPVESENMHWYRQAPGKEREWVAAIYSTGGWTLYADSVKGRFTISRDNAKNTVYLQMNSLKPEDTAVYYCAVQVGYWYEGQGTQVTVS
notes: as for B18
Question: What does the source list for B19?
Answer: Kd [2]: 10.6 nM; increase of the melting temperature of RBD [3]: ~10 degrees

B20: sybody 12 (Sb12) (VHH)
VHH: QVQLVESGGGLVQAGGSLRLSCAASGFPVQLYWMEWYRQAPGKEREWVAAITSDGDYTEYADSVKGRFTISRDNAKNTVYLQMNSLKPEDTAVYYCYVKVGEWYYGQGTQVTVS
notes: as for B18
Question: For B20, which Kd [2] is on record?
Answer: The Kd was 24.2 nM.

B21: sybody 42 (Sb42) (VHH)
VHH: QVQLVESGGGLVQAGGSLRLSCAASGFPVYNTWMEWYRQAPGKEREWVAAITSWGFKTYYADSVKGRFTISRDNAKNTVYLQMNSLKPEDTAVYYCNVKDEGYTGYYYDYWGQGTQVTVS
notes: as for B18
Question: B21 was tested. Which Kd [2] did it give?
Answer: Its Kd is 5 nM.

B22: sybody 76 (Sb76) (VHH)
VHH: QVQLVESGGGLVQAGGSLRLSCAASSFPVDTYHMAWYRQAPGKEREWVAAIVSWGWRTYYADSVKGRFTISRDNAKNTVYLQMNSLKPEDTAVYYCNVKDIGAQEVHYDYWGQGTQVTVS
notes: as for B18
Question: How did the Kd [2] turn out when B22 was run?
Answer: The Kd was 58.1 nM.

B23: sybody 95 (Sb95) (VHH)
VHH: QVQLVESGGGSVQAGGSLRLSCAASGNIYNIKYLGWFRQAPGKEREGVAALMTRYGETYYADSVKGRFTVSLDNAKNTVYLQMNSLKPEDTALYYCAAASYGANWPLVSAAYTYWGQGTQVTVS
notes: as for B18
Question: With B23 as the binder, how does the Kd [2] read?
Answer: Its Kd is 43.9 nM.
